These results are taken from patent US5951979.

The assay addresses tyrosine phosphorylated ^32 P-labelled RCM-lysozyme (Gallus gallus (Chicken)) (UniProt P00698).

As for “full length PTP-PEST D199A (from UniProt Q05209) (enzyme)”, the specific activity with tyrosine phosphorylated RCM-Lysozyme as substrate (fold lower than the wild type enzyme) is 10000.
